The values that follow come from US20120027785A1.

Series [1] concerns the target human CD133 (prominin-1) (human) (UniProt O43490). Kind of series: flow cytometry on RPMI 2650 cells, directly PE-conjugated antibody. For orientation: Flow cytometry measures light scatter and fluorescence of single cells or particles in a stream.
In series [2] the target is T1, CdtA-CdtC heterodimer (wild-type CdtA-His6 and CdtC-His6).
T1 chain 1: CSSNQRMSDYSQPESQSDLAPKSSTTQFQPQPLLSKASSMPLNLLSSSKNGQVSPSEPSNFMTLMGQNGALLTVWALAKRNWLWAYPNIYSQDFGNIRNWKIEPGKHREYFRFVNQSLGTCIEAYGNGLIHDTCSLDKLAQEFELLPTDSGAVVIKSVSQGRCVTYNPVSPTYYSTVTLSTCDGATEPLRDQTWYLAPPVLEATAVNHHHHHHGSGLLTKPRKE
T1 chain 2: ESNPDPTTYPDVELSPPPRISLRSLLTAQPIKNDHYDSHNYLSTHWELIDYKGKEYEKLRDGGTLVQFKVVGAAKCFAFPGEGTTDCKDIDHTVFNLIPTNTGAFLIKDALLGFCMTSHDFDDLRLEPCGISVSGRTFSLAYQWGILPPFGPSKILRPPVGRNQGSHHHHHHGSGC

As to “mouse anti-human CD133/1 MAb conjugated to PE (Miltenyi Biotec) (antibody)”, the median fluorescence (MF) in series [1] came to 64.8.

B1: CdtB/DNase I hybrid protein (from pETBDN2) (protein)
chain: NLSDFKVATWNLQGSSAVNESKWNINVRQLLSGEQGADILMVQEAGSLPSSAVRTSRVIQHGGTPIEEYTWNLGTRSRPNMVYIYYSRLDVGANRVNLAIVSRRQADEAFIVHSDSSVLQSRPAVGIRIGTDVFFTVHAAPGDAVAEIDALYDVYLDVQEKWGLEDVMLMGDFNAGCSYVRPSQWSSIRLWTSPTFQWLIPDSADTTATPTHCAYDRIVVAGMLLRGAVVPDSALPFNFQAANGLSDQLAQAISDHYPVEVMLKHHHHHHHMLEDPAANKAQKK
In the case of B1, in series [2], the “DNA nicking activity of reconstituted heterotrimer preparations” value is “reconstituted heterotrimer preparations containing the CdtB/DNase I hybrid protein failed to convert supercoiled DNA to linear and relaxed forms”.
